Assay results: US20150250895A1 (GEORGETOWN UNIVERSITY, published 2015)

Target: T1, activated matriptase (human, UniProt Q9Y5Y6 1-855)
T1 sequence (looked up): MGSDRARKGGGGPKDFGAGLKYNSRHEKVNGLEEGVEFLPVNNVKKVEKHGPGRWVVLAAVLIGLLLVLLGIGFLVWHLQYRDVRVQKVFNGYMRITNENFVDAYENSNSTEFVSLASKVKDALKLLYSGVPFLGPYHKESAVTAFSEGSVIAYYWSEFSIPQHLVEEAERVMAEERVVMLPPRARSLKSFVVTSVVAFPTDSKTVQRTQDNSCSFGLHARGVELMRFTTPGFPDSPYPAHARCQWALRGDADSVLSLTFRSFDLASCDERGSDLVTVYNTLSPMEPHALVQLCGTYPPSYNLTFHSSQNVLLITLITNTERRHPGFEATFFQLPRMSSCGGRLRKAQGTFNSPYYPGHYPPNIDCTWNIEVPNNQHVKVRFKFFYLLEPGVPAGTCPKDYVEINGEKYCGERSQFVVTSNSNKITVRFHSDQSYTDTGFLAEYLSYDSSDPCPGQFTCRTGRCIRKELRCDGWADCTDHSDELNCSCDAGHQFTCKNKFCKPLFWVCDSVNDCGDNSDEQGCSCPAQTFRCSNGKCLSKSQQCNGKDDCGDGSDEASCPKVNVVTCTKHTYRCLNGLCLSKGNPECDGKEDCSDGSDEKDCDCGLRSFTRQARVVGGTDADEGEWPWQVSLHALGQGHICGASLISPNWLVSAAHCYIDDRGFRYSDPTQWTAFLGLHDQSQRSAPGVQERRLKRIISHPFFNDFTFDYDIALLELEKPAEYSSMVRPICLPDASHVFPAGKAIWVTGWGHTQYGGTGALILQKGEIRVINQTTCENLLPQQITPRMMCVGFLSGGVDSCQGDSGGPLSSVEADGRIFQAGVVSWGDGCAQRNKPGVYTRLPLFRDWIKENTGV
Test: cell-based or functional assay

B1: M17-DOX (monoclonal antibody M17 against activated matriptase conjugated to doxorubicin) (antibody, V domains shown)
VH: EVKLVESGGGLVQPGGSRKLSCAASGFTFSSFGMHWVRQAPEKGLEWVAYISSGSSTLHYADTVKGRFTISRDNPENTLLLMKLPSLCYGLLGSRNLSPRVLQ
VL: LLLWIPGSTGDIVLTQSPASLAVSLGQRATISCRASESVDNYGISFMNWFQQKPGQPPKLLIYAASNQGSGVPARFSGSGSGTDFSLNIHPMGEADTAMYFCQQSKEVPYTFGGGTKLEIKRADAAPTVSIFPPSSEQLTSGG
modifications: doxorubicin coupled via thioether bond formed by the SMCC reaction; sites not stated
With B1 the “IC50, MTS cell proliferation (cytotoxicity) assay, breast cancer cells MDA-MB468” value was 0.65 µg/mL.
